Assay results reported in patent publication US9962507B2, “Droplet delivery device for delivery of fluids to the pulmonary system and methods of use” (PNEUMA RESPIRATORY, INC., priority 2016, dated 2018).

Assays:
Assay type in all cases: physicochemical
[1] = Anderson Cascade Impactor testing of Albuterol sulfate aerosol from the droplet delivery device (Example B); conditions: Albuterol 0.5%, 28.3 lpm
Procedure: Droplet size distribution and related functionality was evaluated for exemplary droplet delivery devices of the disclosure, including Anderson Cascade Impactor testing, total drug mass output rates, total drug respirable mass, delivery efficiencies and reproducibility.
The study was designed to evaluate device performance of a single Pneuma™ inhaler. A series of three (3) individual tests were conducted with a new disposable drug cartridge for each test. The testing platform utilizes an eight-stage nonviable Anderson Cascade Impactor (Thermo Fisher Scientific; Waltham, Mass.) equipped with a calibrated AALBORG model GFM47 mass flow meter (AALBORG Instruments and Controls; Orangeburg, N.Y.) for flow rate measurement.
At the conclusion of each test, the mouthpiece was rinsed with mobile phase and collected for HPLC analysis to determine the mass fraction of non-respirable aerosolized drug captured in the mouthpiece via inertial filtering. Following each test, impactor stage samples were extracted and recovered in solvent and analyzed for the active pharmaceutical ingredient (API) using a Dionex Ultimate 3000 nano-HPLC with UV detection (Thermo Scientific, Sunnyvale, Calif.).
The cascade impactor testing procedure involved fitting the mouthpiece into the Impactor USP throat with a mouthpiece connection seal. […]
The device was connected to the impactor USB throat, turned on, and actuated ten (10) times for each test. […] The i mouthpiece was rinsed in order to extract drug, and all stages of the cascade impactor were rinsed with a quantity of appropriate solvent (HPLC mobile phase). Extracted samples were placed in labeled and sterile HPLC vials, capped, and analyzed for drug content via HPLC with UV detection. The mouthpiece was extracted of residual drug and analyzed for drug content via HPLC to measure mouthpiece drug deposition in relation to the total collected on the impactor stages.
All system flow rates and impactor sample flows were monitored throughout each test period. […]

[2] = Gravimetric analysis of delivered dose per actuation; conditions: average of five doses (actuations)
Procedure: Gravimetric analysis was performed by weighing the Enbrel solution filled ampule before and after dosing. The average of five doses (actuations) were analyzed with an average of 4.25 mg+/−0.15 mg. The total delivered dose of Enbrel per actuation is therefore […] per actuation.
Gravimetric analysis was performed by weighing the Insulin solution filled ampule before and after dosing. The average of five doses (actuations) were analyzed with an average of 5.01 mg+/−0.53 mg. The total delivered dose of Insulin per actuation is therefore 34.8 mcg per actuation.

[3] = Size exclusion chromatography (SEC) stability after aerosol generation with test device
Text: Alternately, to determine the stability of active agent after droplet generation, the generated stream of droplets including the active agent may be collected and […] may be employed to monitor for any changes in large molecule aggregation and protein fragment content. Soluble protein aggregates and protein fragment content may be calculated by comparing respective peak area under the SEC-HPLC curve of dispensed protein solutions with controls (solutions remaining in the device reservoir). Drug solutions for testing include Enbrel, (ENBREL® single-use prefilled syringes in 25 mg (0.51 mL of a 50 mg/mL solution of etanercept), and insulin, (Humalog, 200 units/ml, 3 ml […] is performed with a […] 3 μm SEC-2000 LC column 300×7.8 mm, SecurityGuard cartridge kit and SecurityGuard cartridges GFC-2000, 4×3 mm ID. Fifty microliters of Enbrel from the syringe (ENBREL® single-use prefilled syringes in 25 mg/0.51 mL of a 50 mg/mL solution of etanercept) is diluted (4:1) (4 parts, 200 mcl of the mobile phase buffer solution to 1 part, 50 mcl Enbrel from syringe). Fifty microliter of the diluted Enbrel is injected and separation was performed at a flow rate of 1.0 ml/min. The mobile phase buffer system included a PHOS. BUFF. SALINE. […] UV detection is performed at 280 nm. […] Aerosol collection and SEC is performed in a similar fashion as for the Enbrel analysis and aerosol collection. […] Fifty microliters of the collected aerosol spray is injected onto the SEC column for analysis, while 50 mcl of the […] insulin solution is injected onto the SEC column for control samples.

[4] = Gel electrophoresis of active agent after droplet generation
Text: To determine the stability of active agent after droplet generation, the generated stream of droplets including the active agent is collected and the molecular weight of the active agent is verified using gel electrophoresis.

[5] = Enbrel control (not aerosolized)

Substance	droplets of an average diameter of less than about 4 μm ([1]; 10 actuations)	Fine ([1]; fraction summary table)	Throat ([1]; fraction summary table)	average solution mass per dose (actuation), ampule weighed before and after dosing [2] [mg]	Peak Area %, Peak 3, Avg. ([3]; Insulin aerosolized, average of S1 and S2) [%]	Peak Area %, Peak 3 ([3]; Insulin control (not aerosolized)) [%]	ejected dose that forms a fragment ([3]; Insulin, fragment elutes at ~25 minutes) [%]	change in electrophoretic mobility (molecular weight) of post-aerosol active agent versus control [4]	Peak Area %, Peak 4 [3, 5] [%]	Peak Area %, Peak 5 [3, 5] [%]	dose that leads to formation of molecular fragments ([3]; Enbrel, fragments with elution times of 13 and 25 minutes) [%]
Albuterol sulfate	over 70%	3.5	4.6	–	–	–	–	–	–	–	–
Insulin: insulin, Humalog, 200 units/ml, 3 ml kwikpens	–	–	–	5.01	2.4905	0	2.5	–	–	–	–
etanercept [Enbrel]	–	–	–	4.25	–	–	–	negligible change	0	0	4.6
